The values that follow come from the supplement of paper PMC10567573.

The chains are these.
B1: RIT1 (parent)
chain: FHALVREIRRKEKEAVLAMEKKSK
B2: MMP1 (parent)
chain: MFFKDRFYMRTNPFYPEVELNFIS
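Note: lentivirally expressed fusions sorted by FACS into six bins by GFP to DsRed ratio, PSI derived from sequencing read proportions per bin multiplied by bin number.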

In one data set the parent is B1. The data set is described as follows: protein stability index of a GFP-peptide fusion (GPS, HEK-293T) (PSI 1-6); higher = more stable. To be noted: c terminus: a fixed tail appended.
Regarding FHACVREIRRKEKEAVLAMEKKSK [L4C], the protein stability index is 1.92. On to FHAHVREIRRKEKEAVLAMEKKSK [L4H], for which the protein stability index is 2.36. With FHARVREIRRKEKEAVLAMEKKSK [L4R], the protein stability index was found to be 2.44. Same read-out and setting: the same measure for FHAAVREIRRKEKEAVLAMEKKSK [L4A]: 2.06. On the same count and under the same terms, the same measure for FHAVVREIRRKEKEAVLAMEKKSK [L4V]: 2.24; for FHAIVREIRRKEKEAVLAMEKKSK [L4I]: 2.35; for FHAQVREIRRKEKEAVLAMEKKSK [L4Q]: 2.08. On the same count and under the same terms, the same measure for FHAYVREIRRKEKEAVLAMEKKSK [L4Y]: 2.66; for FHADVREIRRKEKEAVLAMEKKSK [L4D]: 3.26. Consider FHAGVREIRRKEKEAVLAMEKKSK [L4G], for which the protein stability index came out at 2.52. In the case of FHAWVREIRRKEKEAVLAMEKKSK [L4W], the protein stability index came out at 1.77.

With FHAEVREIRRKEKEAVLAMEKKSK [L4E], the protein stability index was 3.18. On to FHAKVREIRRKEKEAVLAMEKKSK [L4K], for which the protein stability index was determined as 2.99.

In the case of FHATVREIRRKEKEAVLAMEKKSK [L4T], the protein stability index was found to be 2.23. Same read-out and setting: the same measure for FHAPVREIRRKEKEAVLAMEKKSK [L4P]: 3.1; for FHAMVREIRRKEKEAVLAMEKKSK [L4M]: 3.92. Still for that read-out and setting: the same measure for FHAFVREIRRKEKEAVLAMEKKSK [L4F]: 2.35; for FHANVREIRRKEKEAVLAMEKKSK [L4N]: 2.65.

For the variant FHASVREIRRKEKEAVLAMEKKSK [L4S], the protein stability index was 2.77. With FHELVREIRRKEKEAVLAMEKKSK [A3E], the protein stability index stood at 1.48.

For the variant FHLLVREIRRKEKEAVLAMEKKSK [A3L], the protein stability index stood at 1.97. For FHGLVREIRRKEKEAVLAMEKKSK [A3G], the protein stability index was determined as 2.15. The same measure, in the same setting: with FHDLVREIRRKEKEAVLAMEKKSK [A3D] the figure was 2.19; with FHVLVREIRRKEKEAVLAMEKKSK [A3V], 1.69. On the same count and under the same terms, with FHNLVREIRRKEKEAVLAMEKKSK [A3N] the figure was 1.87; with FHTLVREIRRKEKEAVLAMEKKSK [A3T], 2.28; with FHQLVREIRRKEKEAVLAMEKKSK [A3Q], 2.45. On the same count and under the same terms, the same measure for FHRLVREIRRKEKEAVLAMEKKSK [A3R]: 2.05; for FHSLVREIRRKEKEAVLAMEKKSK [A3S]: 1.42. In the case of FHPLVREIRRKEKEAVLAMEKKSK [A3P], the protein stability index was found to be 1.45. On the same count and under the same terms, with FHCLVREIRRKEKEAVLAMEKKSK [A3C] the figure was 2.07; with FHILVREIRRKEKEAVLAMEKKSK [A3I], 2.12; with FHMLVREIRRKEKEAVLAMEKKSK [A3M], 1.96. The same measure, in the same setting: with FHKLVREIRRKEKEAVLAMEKKSK [A3K] the figure was 2.04; with FHYLVREIRRKEKEAVLAMEKKSK [A3Y], 2.13; with FHFLVREIRRKEKEAVLAMEKKSK [A3F], 2.34.

With FHHLVREIRRKEKEAVLAMEKKSK [A3H], the protein stability index came to 1.41. Take FHALVREIARKEKEAVLAMEKKSK [R9A]: the protein stability index was 1.82. FHALVREIDRKEKEAVLAMEKKSK [R9D]: the protein stability index was found to be 2.48. The same measure, in the same setting: the same measure for FHALVREIERKEKEAVLAMEKKSK [R9E]: 2.06; for FHALVREICRKEKEAVLAMEKKSK [R9C]: 1.72; for FHALVREIGRKEKEAVLAMEKKSK [R9G]: 2.27. The same measure, in the same setting: the same measure for FHALVRDIRRKEKEAVLAMEKKSK [E7D]: 1.8; for FHALVRAIRRKEKEAVLAMEKKSK [E7A]: 2.79. As to FHALVRIIRRKEKEAVLAMEKKSK [E7I], the protein stability index worked out at 2.24. Still for that read-out and setting: the same measure for FHALVRHIRRKEKEAVLAMEKKSK [E7H]: 1.97; for FHALVRSIRRKEKEAVLAMEKKSK [E7S]: 2.44. Still for that read-out and setting: the same measure for FHALVRVIRRKEKEAVLAMEKKSK [E7V]: 3.23; for FHALVRGIRRKEKEAVLAMEKKSK [E7G]: 1.62; for FHALVRMIRRKEKEAVLAMEKKSK [E7M]: 2.82.

For FHALVRWIRRKEKEAVLAMEKKSK [E7W], the protein stability index is 1.59. On the same count and under the same terms, with FHALVRKIRRKEKEAVLAMEKKSK [E7K] the figure was 1.36; with FHALVRQIRRKEKEAVLAMEKKSK [E7Q], 1.32. The same measure, in the same setting: with FHALVRNIRRKEKEAVLAMEKKSK [E7N] the figure was 2.44. Still for that read-out and setting: with FHALVRFIRRKEKEAVLAMEKKSK [E7F] the figure was 1.82; with FHALVRYIRRKEKEAVLAMEKKSK [E7Y], 2.04; with FHALVRCIRRKEKEAVLAMEKKSK [E7C], 2.16.

Regarding FHALVRLIRRKEKEAVLAMEKKSK [E7L], the protein stability index turned out to be 4.8. Same read-out and setting: the same measure for FHALVRPIRRKEKEAVLAMEKKSK [E7P]: 2.58. Still for that read-out and setting: with FHALVRTIRRKEKEAVLAMEKKSK [E7T] the figure was 1.5; with FHALVRRIRRKEKEAVLAMEKKSK [E7R], 1.87.

In the next data set the parent is B2. The description is as above. To be noted: c terminus: a fixed tail appended.
Regarding MFFKDRFYMRTNPFYPEVELNFNS [I23N], the protein stability index came to 1.53. On the same count and under the same terms, with MFFKDRFYMRTNPFYPEVELNFVS [I23V] the figure was 3.61; with MFFKDRFYMRTNPFYPEVELNFMS [I23M], 3.28; with MFFKDRFYMRTNPFYPEVELNFHS [I23H], 1.76. Still for that read-out and setting: the same measure for MFFKDRFYMRTNPFYPEVELNFRS [I23R]: 3.09; for MFFKDRFYMRTNPFYPEVELNFLS [I23L]: 3.31. For MFFKDRFYMRTNPFYPEVELNFQS [I23Q], the protein stability index stood at 2.34. Same read-out and setting: the same measure for MFFKDRFYMRTNPFYPEVELNFPS [I23P]: 3.27; for MFFKDRFYMRTNPFYPEVELNFKS [I23K]: 2.16; for MFFKDRFYMRTNPFYPEVELNFWS [I23W]: 3.27. Still for that read-out and setting: the same measure for MFFKDRFYMRTNPFYPEVELNFYS [I23Y]: 1.75.

Turning to MFFKDRFYMRTNPFYPEVELNFGS [I23G], the protein stability index is 1.67. The same measure, in the same setting: with MFFKDRFYMRTNPFYPEVELNFSS [I23S] the figure was 2.63; with MFFKDRFYMRTNPFYPEVELNFTS [I23T], 1.56; with MFFKDRFYMRTNPFYPEVELNFFS [I23F], 2.41. On the same count and under the same terms, with MFFKDRFYMRTNPFYPEVELNFIA [S24A] the figure was 2.44. The same measure, in the same setting: the same measure for MFFKDRFYMRTNPFYPEVELNFIR [S24R]: 2.05; for MFFKDRFYMRTNPFYPEVELNFIV [S24V]: 3.21.

As to MFFKDRFYMRTNPFYPEVELNFIL [S24L], the protein stability index is 4.01. As for MFFKDRFYMRTNPFYPEVELNFIH [S24H], the protein stability index was 2.68. Same read-out and setting: the same measure for MFFKDRFYMRTNPFYPEVELNFIP [S24P]: 3.07.

For MFFKDRFYMRTNPFYPEVELNFID [S24D], the protein stability index was 2.77. On the same count and under the same terms, the same measure for MFFKDRFYMRTNPFYPEVELNFIM [S24M]: 2.75. Still for that read-out and setting: the same measure for MFFKDRFYMRTNPFYPEVELNFIY [S24Y]: 3.13; for MFFKDRFYMRTNPFYPEVELNFIF [S24F]: 3.13; for MFFKDRFYMRTNPFYPEVELNFIW [S24W]: 3.15.

MFFKDRFYMRTNPFYPEVELNFIK [S24K]: the protein stability index was 2.83. Still for that read-out and setting: with MFFKDRFYMRTNPFYPEVELNFIQ [S24Q] the figure was 2.87; with MFFKDRFYMRTNPFYPEVELNFIN [S24N], 2.88.

For MFFKDRFYMRTNPFYPEVELNFIC [S24C], the protein stability index was found to be 2.33. For the variant MFFKDRFYMRTNPFYPEVELNFIT [S24T], the protein stability index turned out to be 3.07. Same read-out and setting: the same measure for MFFKDRFYMRTNPFYPEVELNFIG [S24G]: 2.88. On the same count and under the same terms, with MFFKDRFYMRTNPFYPEVELNFIE [S24E] the figure was 2.3.
